# Laboratory results from US20240092890A1 (JUNTENDO EDUCATIONAL FOUNDATION, published 2024).
# What was measured:
# [1] = target: T1, protein having an Fc region and a His-tag added to the N-terminus of SEQ ID NO: 1; assay: BLItz biolayer interferometry, Fc/His-SEQ ID NO: 1 protein on the biosensor
# T1 construct: also called mutant CALR protein (antigen of the BLItz measurement); not shown: Fc region and His-tag at the N-terminus
# T1 chain: RRMMRTKMRMRRM
# Description: As another method, measurements were performed using the molecular interaction analysis system BLItz (ForteBio), which applies biolayer interferometry […]. Specifically, a protein having an Fc region and a His-tag added to the N-terminus of SEQ ID NO: 1 was immobilized at a concentration of 0.1 mg/mL using the Anti-Penta-HIS or ProteinA biosensor (ForteBio). Subsequently, the antibodies 1 to 114 made were prepared at a concentration of 500, 100, and 50 nM and reacted to acquire the dissociation constant.
# [2] = target: T2, Ins 5 type mutant CALR protein on UT-7/TPO CALR Ins 5 cells (UniProt P27797 18-417); assay: cell-based or functional assay
# T2 sequence (looked up): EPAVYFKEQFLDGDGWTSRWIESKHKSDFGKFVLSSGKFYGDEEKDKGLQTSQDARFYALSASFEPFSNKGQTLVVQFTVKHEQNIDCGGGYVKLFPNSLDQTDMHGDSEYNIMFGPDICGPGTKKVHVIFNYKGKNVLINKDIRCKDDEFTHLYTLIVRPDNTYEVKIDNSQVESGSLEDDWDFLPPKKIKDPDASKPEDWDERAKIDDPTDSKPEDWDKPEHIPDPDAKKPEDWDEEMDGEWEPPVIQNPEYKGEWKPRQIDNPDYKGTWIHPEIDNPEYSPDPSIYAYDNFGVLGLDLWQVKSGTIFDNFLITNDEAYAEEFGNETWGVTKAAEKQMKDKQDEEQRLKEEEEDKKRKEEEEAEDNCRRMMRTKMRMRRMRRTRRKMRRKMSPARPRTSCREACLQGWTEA
Binder,Kd [1] [pM],"EC50 of cytotoxic activity (calcein release, T-LAK effector cells) [2] [pM]"
"Antibody 20 (bispecific antibody, hOKT3 scFv fused to the N-terminus of the B3 Fab heavy chain) heavy: QVQLVQSGGGVVQPGRSLRLSCKASGYTFTRYTMHWVRQAPGKGLEWIGYINPSRGYTNYNQKVKDRFTISRDNSKNTAFLQMDSLRPEDTGVYFCARYYDDHYSLDYWGQGTPVTVSSGGGGSGGGGSGGGGSDIQMTQSPSSLSASVGDRVTITCSASSSVSYMNWYQQTPGKAPKRWIYDTSKLASGVPSRFSGSGSGTDYTFTISSLQPEDIATYYCQQWSSNPFTFGQGTKLQITRGGGGSQVQLQQSGAELVKPGSSVKISCKASGYTFTRNFIHWIKQQPGNGLEWIGWIFPGDGDTEYNQKFNGKATLTADKSSSTAYMQLSSLTSEDSAVYFCARGNYNYEYFDYWGQGVMVTVSSASTKGPSVFPLAPSSKSTSGGTAALGCLVKDYFPEPVTVSWNSGALTSGVHTFPAVLQSSGLYSLSSVVTVPSSSLGTQTYICNVNHKPSNTKVDKRVEPKSCHHHHHH light: DIQMTQSPASLSASLGETVSIECLASEDIYSYLAWYQQKPGKSPQLLIFAANRLQDGVPSRFSGSGSGTQFSLKISGMQPEDEGDYFCLQGSKFPYTFGPGTKLELNRTVAAPSVFIFPPSDEQLKSGTASVVCLLNNFYPREAKVQWKVDNALQSGNSQESVTEQDSKDSTYSLSSTLTLSKADYEKHKVYACEVTHQGLSSPVTKSFNRGEC",12400,1460
"Antibody 19 (bispecific antibody, B3 Fab heavy chain, hOKT3 scFv and a second B3 Fab heavy chain in one polypeptide, with the B3 light chain) heavy: QVQLQQSGAELVKPGSSVKISCKASGYTFTRNFIHWIKQQPGNGLEWIGWIFPGDGDTEYNQKFNGKATLTADKSSSTAYMQLSSLTSEDSAVYFCARGNYNYEYFDYWGQGVMVTVSSASTKGPSVFPLAPSSKSTSGGTAALGCLVKDYFPEPVTVSWNSGALTSGVHTFPAVLQSSGLYSLSSVVTVPSSSLGTQTYICNVNHKPSNTKVDKRVEPKSCGGGGSQVQLVQSGGGVVQPGRSLRLSCKASGYTFTRYTMHWVRQAPGKGLEWIGYINPSRGYTNYNQKVKDRFTISRDNSKNTAFLQMDSLRPEDTGVYFCARYYDDHYSLDYWGQGTPVTVSSGGGGSGGGGSGGGGSDIQMTQSPSSLSASVGDRVTITCSASSSVSYMNWYQQTPGKAPKRWIYDTSKLASGVPSRFSGSGSGTDYTFTISSLQPEDIATYYCQQWSSNPFTFGQGTKLQITRGGGGSQVQLQQSGAELVKPGSSVKISCKASGYTFTRNFIHWIKQQPGNGLEWIGWIFPGDGDTEYNQKFNGKATLTADKSSSTAYMQLSSLTSEDSAVYFCARGNYNYEYFDYWGQGVMVTVSSASTKGPSVFPLAPSSKSTSGGTAALGCLVKDYFPEPVTVSWNSGALTSGVHTFPAVLQSSGLYSLSSVVTVPSSSLGTQTYICNVNHKPSNTKVDKRVEPKSCHHHHHH light: DIQMTQSPASLSASLGETVSIECLASEDIYSYLAWYQQKPGKSPQLLIFAANRLQDGVPSRFSGSGSGTQFSLKISGMQPEDEGDYFCLQGSKFPYTFGPGTKLELNRTVAAPSVFIFPPSDEQLKSGTASVVCLLNNFYPREAKVQWKVDNALQSGNSQESVTEQDSKDSTYSLSSTLTLSKADYEKHKVYACEVTHQGLSSPVTKSFNRGEC",728,3710
"Antibody 23 (bispecific antibody, B3 Fab with hOKT3 scFv fused to the light chain N-terminus) heavy: QVQLQQSGAELVKPGSSVKISCKASGYTFTRNFIHWIKQQPGNGLEWIGWIFPGDGDTEYNQKFNGKATLTADKSSSTAYMQLSSLTSEDSAVYFCARGNYNYEYFDYWGQGVMVTVSSASTKGPSVFPLAPSSKSTSGGTAALGCLVKDYFPEPVTVSWNSGALTSGVHTFPAVLQSSGLYSLSSVVTVPSSSLGTQTYICNVNHKPSNTKVDKRVEPKSCHHHHHH light: QVQLVQSGGGVVQPGRSLRLSCKASGYTFTRYTMHWVRQAPGKGLEWIGYINPSRGYTNYNQKVKDRFTISRDNSKNTAFLQMDSLRPEDTGVYFCARYYDDHYSLDYWGQGTPVTVSSGGGGSGGGGSGGGGSDIQMTQSPSSLSASVGDRVTITCSASSSVSYMNWYQQTPGKAPKRWIYDTSKLASGVPSRFSGSGSGTDYTFTISSLQPEDIATYYCQQWSSNPFTFGQGTKLQITRGGGGSDIQMTQSPASLSASLGETVSIECLASEDIYSYLAWYQQKPGKSPQLLIFAANRLQDGVPSRFSGSGSGTQFSLKISGMQPEDEGDYFCLQGSKFPYTFGPGTKLELNRTVAAPSVFIFPPSDEQLKSGTASVVCLLNNFYPREAKVQWKVDNALQSGNSQESVTEQDSKDSTYSLSSTLTLSKADYEKHKVYACEVTHQGLSSPVTKSFNRGEC",6790,370
"Antibody 24 (bispecific antibody, human IgG1, kappa, L234A L235A, B3 IgG with hOKT3 scFv fused to the light chain N-terminus) heavy: not shown light: QVQLVQSGGGVVQPGRSLRLSCKASGYTFTRYTMHWVRQAPGKGLEWIGYINPSRGYTNYNQKVKDRFTISRDNSKNTAFLQMDSLRPEDTGVYFCARYYDDHYSLDYWGQGTPVTVSSGGGGSGGGGSGGGGSDIQMTQSPSSLSASVGDRVTITCSASSSVSYMNWYQQTPGKAPKRWIYDTSKLASGVPSRFSGSGSGTDYTFTISSLQPEDIATYYCQQWSSNPFTFGQGTKLQITRGGGGSDIQMTQSPASLSASLGETVSIECLASEDIYSYLAWYQQKPGKSPQLLIFAANRLQDGVPSRFSGSGSGTQFSLKISGMQPEDEGDYFCLQGSKFPYTFGPGTKLELNRTVAAPSVFIFPPSDEQLKSGTASVVCLLNNFYPREAKVQWKVDNALQSGNSQESVTEQDSKDSTYSLSSTLTLSKADYEKHKVYACEVTHQGLSSPVTKSFNRGEC",531,138

# These reach a lower Kd [1]. Values come first.
Kd [1] [pM],Binder,"EC50 of cytotoxic activity (calcein release, T-LAK effector cells) [2] [pM]"
< 1,"Antibody 18 (bispecific antibody, B3 Fab heavy chain, hOKT3 scFv and CH3 domain in one polypeptide, with the B3 light chain) heavy: QVQLQQSGAELVKPGSSVKISCKASGYTFTRNFIHWIKQQPGNGLEWIGWIFPGDGDTEYNQKFNGKATLTADKSSSTAYMQLSSLTSEDSAVYFCARGNYNYEYFDYWGQGVMVTVSSASTKGPSVFPLAPSSKSTSGGTAALGCLVKDYFPEPVTVSWNSGALTSGVHTFPAVLQSSGLYSLSSVVTVPSSSLGTQTYICNVNHKPSNTKVDKRVEPKSCGGGGSQVQLVQSGGGVVQPGRSLRLSCKASGYTFTRYTMHWVRQAPGKGLEWIGYINPSRGYTNYNQKVKDRFTISRDNSKNTAFLQMDSLRPEDTGVYFCARYYDDHYSLDYWGQGTPVTVSSGGGGSGGGGSGGGGSDIQMTQSPSSLSASVGDRVTITCSASSSVSYMNWYQQTPGKAPKRWIYDTSKLASGVPSRFSGSGSGTDYTFTISSLQPEDIATYYCQQWSSNPFTFGQGTKLQITRAAAGGGQPREPQVYTLPPSREEMTKNQVSLTCLVKGFYPSDIAVEWESNGQPENNYKTTPPVLDSDGSFFLYSKLTVDKSRWQQGNVFSCSVMHEALHNHYTQKSLSLSPGK light: DIQMTQSPASLSASLGETVSIECLASEDIYSYLAWYQQKPGKSPQLLIFAANRLQDGVPSRFSGSGSGTQFSLKISGMQPEDEGDYFCLQGSKFPYTFGPGTKLELNRTVAAPSVFIFPPSDEQLKSGTASVVCLLNNFYPREAKVQWKVDNALQSGNSQESVTEQDSKDSTYSLSSTLTLSKADYEKHKVYACEVTHQGLSSPVTKSFNRGEC",81
< 1,"Antibody 22 (bispecific antibody, hOKT3 scFv, B3 Fab heavy chain and CH3 domain in one polypeptide, with the B3 light chain) heavy: QVQLVQSGGGVVQPGRSLRLSCKASGYTFTRYTMHWVRQAPGKGLEWIGYINPSRGYTNYNQKVKDRFTISRDNSKNTAFLQMDSLRPEDTGVYFCARYYDDHYSLDYWGQGTPVTVSSGGGGSGGGGSGGGGSDIQMTQSPSSLSASVGDRVTITCSASSSVSYMNWYQQTPGKAPKRWIYDTSKLASGVPSRFSGSGSGTDYTFTISSLQPEDIATYYCQQWSSNPFTFGQGTKLQITRGGGGSQVQLQQSGAELVKPGSSVKISCKASGYTFTRNFIHWIKQQPGNGLEWIGWIFPGDGDTEYNQKFNGKATLTADKSSSTAYMQLSSLTSEDSAVYFCARGNYNYEYFDYWGQGVMVTVSSASTKGPSVFPLAPSSKSTSGGTAALGCLVKDYFPEPVTVSWNSGALTSGVHTFPAVLQSSGLYSLSSVVTVPSSSLGTQTYICNVNHKPSNTKVDKRVEPKSCAAAGGGQPREPQVYTLPPSREEMTKNQVSLTCLVKGFYPSDIAVEWESNGQPENNYKTTPPVLDSDGSFFLYSKLTVDKSRWQQGNVFSCSVMHEALHNHYTQKSLSLSPGK light: DIQMTQSPASLSASLGETVSIECLASEDIYSYLAWYQQKPGKSPQLLIFAANRLQDGVPSRFSGSGSGTQFSLKISGMQPEDEGDYFCLQGSKFPYTFGPGTKLELNRTVAAPSVFIFPPSDEQLKSGTASVVCLLNNFYPREAKVQWKVDNALQSGNSQESVTEQDSKDSTYSLSSTLTLSKADYEKHKVYACEVTHQGLSSPVTKSFNRGEC",101
